From US20050037969A1 (ARBOR VITA, published 2005)
Ends that are not written are not given here. * marks the point of attachment. Biotin = O=C1N[C@H]2[C@H](CS[C@H]2CCCCC(=O)*)N1

Key:
Test in all cases: A/G assays
[1] = target: T1, GST-LIM protein PDZ domain fusion protein (Human, UniProt Q96HC4 2-85)
T1 construct: also called Human LIM protein; not shown: glutathione S-transferase encoded by vector pGEX-3X (Pharmacia)
T1 sequence: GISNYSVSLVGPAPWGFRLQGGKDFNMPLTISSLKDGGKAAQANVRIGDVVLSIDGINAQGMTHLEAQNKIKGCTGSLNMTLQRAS

[2] = target: T2, TAX-IP33 PDZ-GST fusion protein (Homo sapiens (Human), UniProt O14910 103-193)
T2 construct: Order of GST and PDZ part and limits not seen in the excerpts
T2 sequence: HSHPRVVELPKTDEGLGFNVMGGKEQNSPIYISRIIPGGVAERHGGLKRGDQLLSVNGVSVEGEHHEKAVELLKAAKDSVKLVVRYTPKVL

[3] = target: T3, MINT3 PDZ-GST fusion protein
T3 construct: Order of GST and PDZ part and limits not seen in the excerpts
T3 chain: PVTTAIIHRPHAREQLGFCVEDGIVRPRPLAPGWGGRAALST

[4] = target: T4, GEF PDZ-GST fusion protein (Homo sapiens (Human), UniProt Q8TEU7 293-400)
T4 construct: The label GEF is not explained in the excerpts
T4 sequence: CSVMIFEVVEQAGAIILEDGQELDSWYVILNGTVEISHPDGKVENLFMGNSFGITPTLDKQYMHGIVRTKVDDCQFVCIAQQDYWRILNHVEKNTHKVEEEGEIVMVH

[5] = target: T5, GST-cytohesin binding protein PDZ domain fusion protein (Homo sapiens (Human), UniProt O60759 74-165)
T5 construct: also called CBP; not shown: glutathione S-transferase encoded by vector pGEX-3X (Pharmacia)
T5 sequence: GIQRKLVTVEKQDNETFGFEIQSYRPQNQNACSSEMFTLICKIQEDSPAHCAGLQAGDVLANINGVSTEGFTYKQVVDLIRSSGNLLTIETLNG

[6] = target: T6, GST-DLG5 (p-dlg) PDZ domain fusion protein (Human, UniProt Q8TDM6 1343-1583)
T6 construct: also called Human discs large protein p-dlg; not shown: glutathione S-transferase encoded by vector pGEX-3X (Pharmacia)
T6 sequence: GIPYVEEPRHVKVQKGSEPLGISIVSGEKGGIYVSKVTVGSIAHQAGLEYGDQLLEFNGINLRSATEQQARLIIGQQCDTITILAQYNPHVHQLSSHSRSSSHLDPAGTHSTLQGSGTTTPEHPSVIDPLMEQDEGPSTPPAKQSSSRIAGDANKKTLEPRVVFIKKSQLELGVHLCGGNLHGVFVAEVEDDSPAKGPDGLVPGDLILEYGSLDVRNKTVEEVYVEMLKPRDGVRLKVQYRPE

[7] = target: T7, K858 PDZ-GST fusion protein (Homo sapiens (Human), UniProt Q8WWI1 1038-1131)
T7 construct: Order of GST and PDZ part and limits not seen in the excerpts
T7 sequence: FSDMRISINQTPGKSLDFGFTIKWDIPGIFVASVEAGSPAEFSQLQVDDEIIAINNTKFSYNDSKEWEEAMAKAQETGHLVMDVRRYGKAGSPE

[8] = target: T8, GST-AF6 PDZ domain fusion protein (Homo sapiens (Human), UniProt P55196 1001-1093)
T8 construct: also called af-6 protein; not shown: glutathione S-transferase encoded by vector pGEX-3X (Pharmacia)
T8 sequence: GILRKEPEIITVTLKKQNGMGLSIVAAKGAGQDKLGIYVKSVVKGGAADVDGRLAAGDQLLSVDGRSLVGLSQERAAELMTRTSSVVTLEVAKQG

[9] = target: T9, GST-DVL1 PDZ domain fusion protein (human, UniProt O14640 247-339)
T9 construct: also called human dishevelled segment polarity protein homolog; not shown: glutathione S-transferase encoded by vector pGEX-3X (Pharmacia)
T9 sequence: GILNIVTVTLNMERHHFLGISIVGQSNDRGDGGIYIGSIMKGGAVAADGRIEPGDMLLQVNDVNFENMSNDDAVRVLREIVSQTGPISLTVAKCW

[10] = target: T10, NSP PDZ-GST fusion protein (Homo sapiens (Human), UniProt Q92743 370-466)
T10 construct: The label NSP is not explained in the excerpts
T10 sequence (Q92743 other isoform, or with tags, fused parts or gaps limits assumed): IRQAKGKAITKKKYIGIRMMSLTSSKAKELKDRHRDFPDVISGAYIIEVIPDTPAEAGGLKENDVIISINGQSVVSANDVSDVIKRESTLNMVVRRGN

[11] = target: T11, GST-prIL16 fusion protein (PDZ domains 1-2) (Homo sapiens (Human), UniProt Q14005 1111-1324)
T11 construct: also called putative interleukin 16 precursor; not shown: glutathione S-transferase encoded by vector pGEX-3X (Pharmacia)
T11 sequence: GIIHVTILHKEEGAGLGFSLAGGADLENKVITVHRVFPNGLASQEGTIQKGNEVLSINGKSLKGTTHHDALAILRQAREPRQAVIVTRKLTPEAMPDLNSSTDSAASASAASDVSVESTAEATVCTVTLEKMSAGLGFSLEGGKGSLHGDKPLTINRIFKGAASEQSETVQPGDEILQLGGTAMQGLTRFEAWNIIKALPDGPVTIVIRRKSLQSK

[12] = target: T12, GST-KIAA0303 PDZ domain fusion protein (Homo sapiens (Human), UniProt O15021 1138-1228)
T12 construct: also called K303; not shown: glutathione S-transferase encoded by vector pGEX-3X (Pharmacia)
T12 sequence: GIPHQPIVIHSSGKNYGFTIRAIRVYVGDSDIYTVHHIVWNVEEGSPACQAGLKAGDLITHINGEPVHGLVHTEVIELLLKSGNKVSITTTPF

[13] = target: T13, PICK1 PDZ-GST fusion protein (Bos taurus (Bovine), UniProt Q2T9M1 17-105)
T13 construct: Order of GST and PDZ part and limits not seen in the excerpts
T13 sequence (Q2T9M1 other isoform, or with tags, fused parts or gaps limits assumed): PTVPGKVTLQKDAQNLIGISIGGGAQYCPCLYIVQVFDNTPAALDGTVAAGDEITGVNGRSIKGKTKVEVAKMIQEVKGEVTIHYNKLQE

[14] = target: T14, SP short PDZ-GST fusion protein (Homo sapiens (Human), UniProt O43464 350-435)
T14 construct: The label SP short is not explained in the excerpts
T14 sequence: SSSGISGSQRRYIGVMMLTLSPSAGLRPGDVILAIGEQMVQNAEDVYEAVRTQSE

[15] = target: T15, GST-TIAM1 PDZ domain fusion protein (Homo sapiens (Human), UniProt Q13009 845-931)
T15 construct: also called TLAM1; T-lymphoma invasion and metastasis inducing protein 1; not shown: glutathione S-transferase encoded by vector pGEX-3X (Pharmacia)
T15 sequence (Q13009 other isoform, or with tags, fused parts or gaps): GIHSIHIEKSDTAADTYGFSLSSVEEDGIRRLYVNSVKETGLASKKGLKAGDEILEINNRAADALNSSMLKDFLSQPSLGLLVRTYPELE

[16] = target: T16, K316 PDZ-GST fusion protein (Homo sapiens (Human), UniProt Q14CM0 72-159)
T16 construct: Order of GST and PDZ part and limits not seen in the excerpts
T16 sequence (Q14CM0 72-159 limits assumed): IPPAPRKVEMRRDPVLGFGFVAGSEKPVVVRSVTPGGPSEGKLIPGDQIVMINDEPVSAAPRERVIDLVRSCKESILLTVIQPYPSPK

Measured: binding result

B1: Clasp-1 C-terminal peptide AA1L, biotinylated (peptide)
peptide: Biotin-ISKATPALPTVSISSSAEV
notes: also called AA1L-R
no binding: all assays above

B2: Mannose receptor C-terminal peptide AA31L (peptide)
peptide: Biotin-GTSDMKDLVGNIEQNEHSVI
notes: Only the last four residues are seen in the excerpts
no binding: all assays above

B3: CD148 C-terminal peptide AA19L, biotinylated (peptide)
peptide: Biotin-ENLAPVTTFGKTNGYIA
notes: also called CD148 (DEP-1)
no binding: all assays above
